From patent US20210363215A1 (published 2021)
Values belong to the binder of their own block, whether it stands above or below them.

Molecular target: T1, MAGE-B2 (peptide MB2-231) peptide on HLA-A*02:01 (human)
T1 peptide: GVYDGEEHSV
Assay: multimer staining

binding result: recognises
B1: MAGE-B2-231 C5 TCR (TCR, V domains shown)
Valpha: KNQVEQSPQSLIILEGKNCTLQCNYTVSPFSNLRWYKQDTGRGPVSLTIMTFSENTKSNGRYTATLDADTKQSSLHITASQLSDSASYICVVISGFQKLVFGTGTRLLVSP
Vbeta: EAGVVQSPRYKIIEKKQPVAFWCNPISGHNTLYWYRQNLGQGPELLIRYENEEAVDDSQLPKDRFSAERLKGVDSTLKIQPAELGDSAVYLCASSFPKQGSYNEQFFGPGTRLTVL

binding result: recognises
B2: MAGE-B2 TCR of SEQ ID NOs 3 and 5 (TCR, V domains shown)
Valpha: GNSVTQMEGPVTLSEEAFLTINCTYTATGYPSLFWYVQYPGEGLQLLLKATKADDKGSNKGFEATYRKETTSFHLEKGSVQVSDSAVYFCALTNDYKLSFGAGTTVTVRA
Vbeta: DAMVIQNPRYQVTQFGKPVTLSCSQTLNHNVMYWYQQKSSQAPKLLFHYYDKDFNNEADTPDNFQSRRPNTSFCFLDIRSPGLGDAAMYLCATSRGGRYNEQFFGPGTRLTVL
